Assay results: patent US20110275102A1

Columns and labels:
Experiment in all cases: cell-based or functional assay
[1] = biological target: EE-GSK3β: human GSK3β with the EFMPME (EE) epitope tag at the N-terminus (human) (UniProt P49841)
PRTSSF = biological target: PRTSSF
RPRTSSPA = biological target: RPRTSSPA
RPRTSAF = biological target: RPRTSAF

EE-GSK3β: human GSK3β with the EFMPME (EE) epitope tag at the N-terminus (human), sequence (P49841 other isoform, or with tags, fused parts or gaps): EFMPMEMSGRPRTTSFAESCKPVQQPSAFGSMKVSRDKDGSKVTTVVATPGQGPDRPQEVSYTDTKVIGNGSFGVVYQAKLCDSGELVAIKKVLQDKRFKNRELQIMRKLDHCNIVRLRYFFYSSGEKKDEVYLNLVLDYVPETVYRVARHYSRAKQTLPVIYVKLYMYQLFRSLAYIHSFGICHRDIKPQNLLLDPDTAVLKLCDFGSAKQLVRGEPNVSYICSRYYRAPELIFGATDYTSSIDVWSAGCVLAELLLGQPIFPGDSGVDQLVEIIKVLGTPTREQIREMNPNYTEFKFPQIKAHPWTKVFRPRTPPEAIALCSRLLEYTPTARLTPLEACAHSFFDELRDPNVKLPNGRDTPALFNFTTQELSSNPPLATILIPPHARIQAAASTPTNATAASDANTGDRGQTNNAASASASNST

| Substance | increase in GSK3 activity on PP2A treatment after coexpression in 293 cells [1] [%] | rate of phosphorylation (cell stands under Vmax; may belong to V (0.1 mM)) (PRTSSF) | rate of phosphorylation (cell stands under Vmax; may belong to V (0.1 mM)) (RPRTSSPA) | rate of phosphorylation (cell stands under Vmax; may belong to V (0.1 mM)) (RPRTSAF) |
| --- | --- | --- | --- | --- |
| HA-308D/473D-RAC-PKα: constitutively active double mutant (Thr308 and Ser473 changed to Asp) (enzyme) | 85 |  |  |  |
| HA-KD-RAC-PKα: kinase-dead HA-RAC-PKα in which Lys179 is mutated to Ala (enzyme) | 12 |  |  |  |
| HA-RAC-PKα immunoprecipitated from IGF-1 stimulated 293 cells (enzyme) |  | 0 | 0 | 0 |
| HA-RAC-PKα: haemagglutinin epitope-tagged wild-type human RAC-PKα (enzyme) | 68 |  |  |  |
